The Human Domainome abundance scans (Beltran et al. 2025)
± gives the uncertainty stated by the source.

B1: E3 ubiquitin-protein ligase Midline-1, residues 172 to 214; numbered along this chain, O15344 (parent)
chain: GLMCLEHEDEKVNMYCVTDDQLICALCKLVGRHRDHQVAALSE

Variants of: B1
Assay: abundance fitness (aPCA) (normalised: wild type 0, dead -1); higher = more abundant; growth selection in yeast, the domain comes from the species named
Settings: Homo sapiens

GLICLEHEDEKVNMYCVTDDQLICALCKLVGRHRDHQVAALSE [M3I] and GLYCLEHEDEKVNMYCVTDDQLICALCKLVGRHRDHQVAALSE [M3Y] are within error of each other in abundance fitness: 0.089 ± 0.11 for the first, -0.229 ± 0.26 for the second.

GLECLEHEDEKVNMYCVTDDQLICALCKLVGRHRDHQVAALSE [M3E] and GLCCLEHEDEKVNMYCVTDDQLICALCKLVGRHRDHQVAALSE [M3C] are within error of each other in abundance fitness: -0.332 ± 0.1 for the first, -0.21 ± 0.21 for the second.

GLWCLEHEDEKVNMYCVTDDQLICALCKLVGRHRDHQVAALSE [M3W] and GLQCLEHEDEKVNMYCVTDDQLICALCKLVGRHRDHQVAALSE [M3Q] are within error of each other in abundance fitness: -0.333 ± 0.086 for the first, -0.276 ± 0.14 for the second.

GLNCLEHEDEKVNMYCVTDDQLICALCKLVGRHRDHQVAALSE [M3N] and GLVCLEHEDEKVNMYCVTDDQLICALCKLVGRHRDHQVAALSE [M3V] are within error of each other in abundance fitness: 0.019 ± 0.16 for the first, -0.144 ± 0.075 for the second.

First: GLTCLEHEDEKVNMYCVTDDQLICALCKLVGRHRDHQVAALSE [M3T]
Second: GLSCLEHEDEKVNMYCVTDDQLICALCKLVGRHRDHQVAALSE [M3S]
The abundance fitness of the first is lower: -0.166 ± 0.093 for the first, 0.006 ± 0.06 for the second.

GLRCLEHEDEKVNMYCVTDDQLICALCKLVGRHRDHQVAALSE [M3R] and GLLCLEHEDEKVNMYCVTDDQLICALCKLVGRHRDHQVAALSE [M3L] are within error of each other in abundance fitness: -0.101 ± 0.057 for the first, -0.05 ± 0.072 for the second.

GLFCLEHEDEKVNMYCVTDDQLICALCKLVGRHRDHQVAALSE [M3F] and GLKCLEHEDEKVNMYCVTDDQLICALCKLVGRHRDHQVAALSE [M3K] are within error of each other in abundance fitness: 0.111 ± 0.13 for the first, -0.006 ± 0.083 for the second.

GLMCQEHEDEKVNMYCVTDDQLICALCKLVGRHRDHQVAALSE [L5Q] and GLMCYEHEDEKVNMYCVTDDQLICALCKLVGRHRDHQVAALSE [L5Y] are within error of each other in abundance fitness: -0.155 ± 0.11 for the first, -0.021 ± 0.16 for the second.

GLMCGEHEDEKVNMYCVTDDQLICALCKLVGRHRDHQVAALSE [L5G] and GLMCFEHEDEKVNMYCVTDDQLICALCKLVGRHRDHQVAALSE [L5F] are within error of each other in abundance fitness: -0.092 ± 0.062 for the first, -0.13 ± 0.3 for the second.

GLMCKEHEDEKVNMYCVTDDQLICALCKLVGRHRDHQVAALSE [L5K] and GLMCNEHEDEKVNMYCVTDDQLICALCKLVGRHRDHQVAALSE [L5N] are within error of each other in abundance fitness: 0.142 ± 0.085 for the first, -0.124 ± 0.19 for the second.

GLMCPEHEDEKVNMYCVTDDQLICALCKLVGRHRDHQVAALSE [L5P] and GLMCAEHEDEKVNMYCVTDDQLICALCKLVGRHRDHQVAALSE [L5A] are within error of each other in abundance fitness: 0.058 ± 0.069 for the first, 0.023 ± 0.051 for the second.

First: GLMCREHEDEKVNMYCVTDDQLICALCKLVGRHRDHQVAALSE [L5R]
Second: GLMCWEHEDEKVNMYCVTDDQLICALCKLVGRHRDHQVAALSE [L5W]
The abundance fitness of the first is higher: -0.062 ± 0.054 for the first, -0.482 ± 0.1 for the second.

GLMCHEHEDEKVNMYCVTDDQLICALCKLVGRHRDHQVAALSE [L5H] and GLMCCEHEDEKVNMYCVTDDQLICALCKLVGRHRDHQVAALSE [L5C] are within error of each other in abundance fitness: -0.037 ± 0.11 for the first, 0.055 ± 0.11 for the second.

Going from GLMCVEHEDEKVNMYCVTDDQLICALCKLVGRHRDHQVAALSE [L5V] to GLMCSEHEDEKVNMYCVTDDQLICALCKLVGRHRDHQVAALSE [L5S], the abundance fitness rises from -0.165 ± 0.064 to -0.012 ± 0.073.

GLMCEEHEDEKVNMYCVTDDQLICALCKLVGRHRDHQVAALSE [L5E] and GLMCDEHEDEKVNMYCVTDDQLICALCKLVGRHRDHQVAALSE [L5D] are within error of each other in abundance fitness: 0.074 ± 0.066 for the first, 0.039 ± 0.12 for the second.

GLMCIEHEDEKVNMYCVTDDQLICALCKLVGRHRDHQVAALSE [L5I] and GLMCTEHEDEKVNMYCVTDDQLICALCKLVGRHRDHQVAALSE [L5T] are within error of each other in abundance fitness: -0.435 ± 0.41 for the first, -0.039 ± 0.12 for the second.

GLMDLEHEDEKVNMYCVTDDQLICALCKLVGRHRDHQVAALSE [C4D] and GLMSLEHEDEKVNMYCVTDDQLICALCKLVGRHRDHQVAALSE [C4S] are within error of each other in abundance fitness: -0.343 ± 0.083 for the first, -0.295 ± 0.085 for the second.

First: GLMTLEHEDEKVNMYCVTDDQLICALCKLVGRHRDHQVAALSE [C4T]
Second: GLMALEHEDEKVNMYCVTDDQLICALCKLVGRHRDHQVAALSE [C4A]
The abundance fitness of the first is higher: -0.078 ± 0.13 for the first, -0.699 ± 0.11 for the second.

Compared with GLMWLEHEDEKVNMYCVTDDQLICALCKLVGRHRDHQVAALSE [C4W], GLMGLEHEDEKVNMYCVTDDQLICALCKLVGRHRDHQVAALSE [C4G] is lower in abundance fitness: -0.439 ± 0.12 for the first, -0.713 ± 0.083 for the second.

First: GLMVLEHEDEKVNMYCVTDDQLICALCKLVGRHRDHQVAALSE [C4V]
Second: GLMHLEHEDEKVNMYCVTDDQLICALCKLVGRHRDHQVAALSE [C4H]
The abundance fitness of the first is lower: -0.944 ± 0.14 for the first, -0.221 ± 0.24 for the second.

GLMYLEHEDEKVNMYCVTDDQLICALCKLVGRHRDHQVAALSE [C4Y] and GLMRLEHEDEKVNMYCVTDDQLICALCKLVGRHRDHQVAALSE [C4R] are within error of each other in abundance fitness: -0.594 ± 0.2 for the first, -0.647 ± 0.086 for the second.

Compared with GLMPLEHEDEKVNMYCVTDDQLICALCKLVGRHRDHQVAALSE [C4P], GLMELEHEDEKVNMYCVTDDQLICALCKLVGRHRDHQVAALSE [C4E] is higher in abundance fitness: -1.18 ± 0.29 for the first, -0.441 ± 0.096 for the second.

Compared with GLMQLEHEDEKVNMYCVTDDQLICALCKLVGRHRDHQVAALSE [C4Q], GLMCLESEDEKVNMYCVTDDQLICALCKLVGRHRDHQVAALSE [H7S] is lower in abundance fitness: -0.314 ± 0.079 for the first, -0.765 ± 0.11 for the second.

Going from GLMCLEYEDEKVNMYCVTDDQLICALCKLVGRHRDHQVAALSE [H7Y] to GLMCLELEDEKVNMYCVTDDQLICALCKLVGRHRDHQVAALSE [H7L], the abundance fitness falls from -0.637 ± 0.13 to -1.03 ± 0.14.

GLMCLEGEDEKVNMYCVTDDQLICALCKLVGRHRDHQVAALSE [H7G] and GLMCLEKEDEKVNMYCVTDDQLICALCKLVGRHRDHQVAALSE [H7K] are within error of each other in abundance fitness: -0.5 ± 0.057 for the first, -0.604 ± 0.12 for the second.

GLMCLEMEDEKVNMYCVTDDQLICALCKLVGRHRDHQVAALSE [H7M] and GLMCLEQEDEKVNMYCVTDDQLICALCKLVGRHRDHQVAALSE [H7Q] are within error of each other in abundance fitness: -0.66 ± 0.12 for the first, -0.551 ± 0.12 for the second.

GLMCLEAEDEKVNMYCVTDDQLICALCKLVGRHRDHQVAALSE [H7A] and GLMCLETEDEKVNMYCVTDDQLICALCKLVGRHRDHQVAALSE [H7T] are within error of each other in abundance fitness: -0.703 ± 0.083 for the first, -0.492 ± 0.15 for the second.

GLMCLEEEDEKVNMYCVTDDQLICALCKLVGRHRDHQVAALSE [H7E] and GLMCLECEDEKVNMYCVTDDQLICALCKLVGRHRDHQVAALSE [H7C] are within error of each other in abundance fitness: -0.433 ± 0.081 for the first, -0.466 ± 0.14 for the second.

First: GLMCLEVEDEKVNMYCVTDDQLICALCKLVGRHRDHQVAALSE [H7V]
Second: GLMCLEWEDEKVNMYCVTDDQLICALCKLVGRHRDHQVAALSE [H7W]
The abundance fitness of the first is lower: -1.34 ± 0.18 for the first, -0.89 ± 0.13 for the second.

Variant GLMCLEREDEKVNMYCVTDDQLICALCKLVGRHRDHQVAALSE [H7R] has an abundance fitness of -0.646 ± 0.07.
